Data from patent US9422450B2, “Surface coated structures and methods” (ARCH BIOPHYSICS, INC., priority 2009, dated 2016).
Bridges are numbered along the chain shown (N, C = ends). Where no end group is shown, it is not given here.

Test: Corrosion resistance (Icorr, Ecorr, corrosion rate, Rp) of coated stainless steel
Assay type: physicochemical
Settings: pilin conjugates on stainless steel

Substance: E-PAK: pilin peptide conjugated to an E-coil (negatively charged leucine zipper) peptide (DGLWKCTSDQDEQFIPKGCSR; disulfide 6-19; also: conjugated to E-coil peptide)
- Corrosion Rate (Unmodified 0.0547): 0.1981 mpy
- Ecorr (Unmodified 4.2): 87.2 mV
- Rp (Unmodified 303.141): 121.722 Ohms/cm^2
- Icorr (Unmodified 802): 1940 nAmps
